pKd: −log10 of the molar value.
Key:
[1] = test system: H-NS (Vibrio cholerae C7258?); assay: EMSA
[2] = test system: VpsT (Vibrio cholerae C7258?); assay: EMSA

Row | Substance | pKd [1] | pKd [2]
1 | vpsA promoter -223 to -139 | 6.86 | 7.37
2 | vpsL promoter -262 to -185 | 6.69 | 7.45

Source: PMC4617317
